Test in all cases: SEC; 100-200 μg of protein on a Superose 6 Increase 10/300GL column
Assay [1] deals with unstabilised MojV F (ectodomain with C-Tag, without clamp2) (Mòjiāng virus).
Assay [2] deals with unstabilised LayV F (ectodomain with C-Tag, without clamp2) (Langya virus).
In assay [3] the target is LayV F clamp2 (prefusion Langya virus fusion glycoprotein ectodomain stabilised with the clamp2 molecular clamp) (Langya virus).

Turning to “unstabilised MojV F (ectodomain with C-Tag, without clamp2) (domain or fragment)”, the stoichiometry N (commonly the number of molecules, sites or subunits per partner or assembly) in assay [1] is 3.

“unstabilised LayV F (ectodomain with C-Tag, without clamp2) (domain or fragment)”: in assay [2], the stoichiometry N came to 3.

Substance “LayV F clamp2 (prefusion Langya virus fusion glycoprotein ectodomain stabilised with the clamp2 molecular clamp) (domain or fragment)” displayed a stoichiometry N in assay [3] of 3.

The values are drawn from article PMC10275869.
